Laboratory results reported in the supplement of paper PMC6755084.

B1: minF1; a variant is named by its letters at N, in order (parent)
chain: GAGACCGCAACTGAAAAGTTGTTNNNNAANNNNGGNTNNATTTCTGCACGTAGAAGCAAAAGGC

Variants of: B1
Test: fraction ligated after 30 min (ligated reads / total reads); higher = more ligase activity
Conditions: with F1*subA RNA substrate (template-directed ligation), 42 °C
Description: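 Chip-synthesised pool of minF1 ligase ribozyme variants (single and double substitutions, single to quadruple deletions, bulge and P2 designed variants) was transcribed with T7 and reacted as a pool with excess substrate F1*subA for 30 min at 42 C in 50 mM EPPS pH 8.5, 25 mM MgCl2. Ligated and unligated RNAs were separated by PAGE, barcoded by RT and deep sequenced; fraction ligated = ligated reads / total reads, relative activity = FL / FL of wild-type minF1 (0.76); sequencing FL correlated with PAGE (R2 = 0.98). Sequences are the DNA template of the ribozyme.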

| Variant | fraction ligated |
| --- | --- |
| ATCAATGAGTG A28G G34T | 0.00581 |
| ATCAATGGGGT G34A G35T T37G A40T | 0.0016 |
| ATCAAGAGTGA | 0.0037 |
| ATCAAATGGTT A28G G34A G35T T37G | 0.00118 |
| ATAGATGGTGA | 0.00397 |
| ATCAAGGGTGA | 0.00247 |
| ATCGAGGAGTA G34T | 0.00121 |
| ATAGATGAGTT G34T T37G A40G | 0.00153 |
| ATAGTGGTTGA | 0.0023 |
| ATCAATAGTGA | 0.00321 |
| ATCAAAGGGTT A28G G34T T37G A40G | 0.000216 |
| ATCATGGTGTA | 0.00395 |
| ATCATGGTGTG | 0.00925 |
| ATCATGATGTA A28G | 0.00257 |
| ATAGATGGGTG | 0.00885 |
| ATAGATGGGTA | 0.00171 |
| ATCAAGGTGTA A28G | 0.00466 |
| ATAGATTGTGA | 0.00167 |
| ATAATGGAGTT G34T T37G | 0.00161 |
| ATCATGATTGA | 0.00257 |
| ATCAGGTGTGA | 0.00443 |
| ATCAAAGAGTA A28G G34T | 0.00276 |
| ATCATGGAGTA A28G G34T | 0.00586 |
| ATCAAAGGGTG A28G G34T | 0.00328 |

| Variant | fraction ligated |
| --- | --- |
| ATCAAAGGGTG A28G G34A | 0.00764 |
| ATAGATGAGTG G34T | 0.00408 |
| ATAGGGATGTG A29T | 0.012 |
| ATAGTGGGTGA | 0.00334 |
| ATCAATGATGA | 0.00478 |
| ATAGTGATGTG | 0.00732 |
| ATAGTGATGTA | 0.00203 |
| ATCAAGGATGA A28G | 0.000468 |
| ATCAAGGTGTG | 0.00687 |
| ATCAAGGTGTA | 0.00438 |
| ATCAAATGTGT A28G G35A T37G A40T | 0.000969 |
| ATCAGGAGTGA A28G | 0.0026 |
| ATCAAAGGGTA A28G G34T | 0.00211 |
| ATCAAAGGGTA A28G G34A | 0.00347 |
| ATAGATGGGTT G34A G35T T37G | 0.0013 |
| ATCAAGATGTA | 0.00295 |
| ATCAAGATGTG | 0.0129 |
| ATCAATGAGTG G34T | 0.00509 |
| ATCAAATGTGA | 0.00252 |
| ATCGATATTGA | 0.00165 |
| ATCAATATGTG A28G | 0.00686 |
| ATCAAAATGTA A28G | 0.0033 |
| ATAATGGGTGA | 0.00329 |
| ATCAATGGGTT A28G G34T T37G | 0.00191 |

| Variant | fraction ligated |
| --- | --- |
| ATAATGGAGTT G34T T37G A40G | 0.00113 |
| ATCAGGATTGA | 0.00379 |
| ATAGATGGGTA G34T | 0.00288 |
| ATAGATGGGTA G34A | 0.00325 |
| ATCAAATAGTA A28G | 0.00232 |
| ATCAAAGGTGA A28G | 0.00196 |
| ATCAATGAGTA A28G G34T | 0.00248 |
| ATCATATGTGA A28G | 0.00411 |
| ATCATGAGTGA | 0.00331 |
| ATAATGATGTA | 0.00361 |
| ATAATGATGTG | 0.00571 |
| ATCAATAGTGA A28G | 0.00213 |
| ATAGAGGGTGA | 0.00176 |
| ATAGAGAGTGA | 0.000691 |
| ATCAATGGGTT G34T T37G | 0.00279 |
| ATCAAATATGA A28G | 0.00291 |
| ATCGATGGGTG | 0.00493 |
| ATCGATGGGTA | 0.000742 |
| ATAGGGTGTGA A29T | 0.00231 |
| ATCAAAAGTGA A28G | 0.00266 |
| ATAGTGAGTGA | 0.00282 |
| ATAGATGTTGA | 0.00174 |
| ATCAGGATTGA A29T | 0.00634 |
| ATCAAATGGTG A28G G34A | 0.00551 |

| Variant | fraction ligated |
| --- | --- |
| ATCAAATGGTG A28G G34T | 0.0032 |
| ATCAAGGTTGA | 0.00224 |
| ATAGTGTGTGA | 0.0025 |
| ATCAATGGGTT A28G G34T T37G A40G | 0.00157 |
| ATCAAAGATGA A28G | 0.00211 |
| ATCAAGGAGTG | 0.00548 |
| ATCAAGGAGTA | 0.00502 |
| ATCAAGGTTGA A28G | 0.00202 |
| ATAATGGTGTG | 0.00419 |
| ATAATGGTGTA | 0.00235 |
| ATCAGGATTGA A28G | 0.0019 |
| ATCGAGGGTGA | 0.00167 |
| ATCAATGGGTG G34T | 0.00622 |
| ATCAATGGGTG G34A | 0.00542 |
| ATAGATGGGTT G34T T37G A40G | 0.000495 |
| ATCAAATGGTA A28G | 0.0012 |
| ATCAAGATTGA A28G | 0.00251 |
| ATAGTGGATGA | 0.00362 |
| ATCGAATGTGA | 0.00581 |
| ATAGAGGTTGA | 0.00247 |
| ATCAAATGGTG A28G | 0.00534 |
| ATCAAGGGTGA A28G | 0.00483 |
| ATCAATGGGTA A28G | 0.000828 |
| ATCAGGATGTA A28G | 0.00247 |

| Variant | fraction ligated |
| --- | --- |
| ATAGTGATTGA | 0.00291 |
| ATAGTGGAGTG G34T | 0.0109 |
| ATAGAGGAGTG | 0.00449 |
| ATAGAGGAGTA | 0.00256 |
| ATCGATGAGTA G34T | 0.00167 |
| ATCAGATGTGA A28G A29G | 0.00309 |
| ATCAGATGTGA A28G A29T | 0.00278 |
| ATCAAGATTGA | 0.00249 |
| ATCAATGGGTG A28G | 0.00414 |
| ATCAATGTGTG | 0.00785 |
| ATCAATGTGTA | 0.00707 |
| ATCGAGGTGTA | 0.00324 |
| ATCGAGGTGTG | 0.00858 |
| ATAGAGTGTGA | 0.00554 |
| ATCAAAGGGTA A28G | 0.00291 |
| ATCAATATTGA A28G | 0.00433 |
| ATCAAATGTGA A28G | 0.00482 |
| ATCAAGGAGTG A28G | 0.00589 |
| ATCAATGAGTG A28G | 0.00439 |
| ATCGAGGATGA | 0.00383 |
| ATCAATGGGTT A28G G34A G35T T37G | 0.00268 |
| ATAGGGTGTGA | 0.00288 |
| ATCAATGTGTA A28G | 0.00287 |
| ATCAGGAGTGA A28G A29T | 0.0016 |

| Variant | fraction ligated |
| --- | --- |
| ATCAAGGAGTT A28G G34T T37G A40G | 0.000656 |
| ATAGAGGATGA | 0.00219 |
| ATCAGATGTGA A28T A29G | 0.0131 |
| ATAATATGTGA | 0.00335 |
| ATCAAGGAGTG A28G G34T | 0.00593 |
| ATAGTGGAGTT G34T T37G | 0.00164 |
| ATCAGGTGTGA A28G A29T | 0.00216 |
| ATCAAATAGTG A28G G34T | 0.0037 |
| ATCAAAGGGTT A28G G34A T37G | 0.00203 |
| ATAGTGGAGTA G34T | 0.00645 |
| ATCAAATGGTT A28G G35A T37G A40G | 0.00174 |
| ATCATGTGTGA A28G | 0.00186 |
| ATCAAATGGTT A28G G35T T37G | 0.00103 |
| ATCAAAGTGTA A28G | 0.00412 |
| ATCAAAGAGTG A28G | 0.00384 |
| ATCAATGGGTA G34A | 0.00177 |
| ATCAATGGGTA G34T | 0.0029 |
| ATCAAGGAGTT G34T T37G A40G | 0.00198 |
| ATCAATGGGTT G34A G35T T37G A40G | 0.00189 |
| ATCAATTGTGA | 0.00256 |
| ATCAAAGTTGA A28G | 0.0038 |
| ATCAGGATGTA | 0.00297 |
| ATCAGGATGTG | 0.00943 |
| ATCAAAATTGA A28G | 0.00208 |

| Variant | fraction ligated |
| --- | --- |
| ATCATGATGTA | 0.00345 |
| ATCATGATGTG | 0.0143 |
| ATCGATAGTGA | 0.00296 |
| ATAGTGGAGTA | 0.00346 |
| ATAGTGGAGTG | 0.00518 |
| ATCAAAGAGTG A28G G34T | 0.00562 |
| ATCATGGGTGA | 0.00433 |
| ATCAAATGGTT A28G G34A T37G | 0.0014 |
| ATCGAGGAGTG G34T | 0.00393 |
| ATCATGGGTGA A28G | 0.00379 |
| ATAGAGGAGTT G34T T37G A40G | 0.00121 |
| ATCAGGATTGA A28G A29T | 0.00153 |
| ATCAAATAGTG A28G | 0.00674 |
| ATAGGGATGTA A29T | 0.00166 |
| ATCGAGGTTGA | 0.00313 |
| ATCAAATTTGA A28G | 0.00721 |
| ATAGATGAGTA G34T | 0.0034 |
| ATAGATGGGTG G34A | 0.00708 |
| ATAGATGGGTG G34T | 0.00668 |
| ATCGAGATGTA | 0.00349 |
| ATCGAGATGTG | 0.0313 |
| ATAGGGAGTGA A29T | 0.00713 |
| ATCAATGTGTG A28G | 0.00324 |
